The record followed here is patent US20130252821A1, “METHODS AND COMPOSITIONS FOR THE TREATMENT AND DIAGNOSIS OF DISEASES CHARACTERIZED BY VASCULAR LEAK, HYPOTENSION, OR A PROCOAGULANT STATE” (Beth Israel Deaconess Medical Center, Inc., priority 2005, published 2013).

The test system of test [1] is HMVEC-L. Description: Immunohistochemistry of HMVEC-L (F-actin, MLC-P, VE-cadherin). The class given is cell-based, human. The procedure: HMVEC-L were grown to confluent on glass coverslips coated with 0.1% gelatin (Attachment factor, Cascade Biologics, Portland, Oreg.) in 5% FBS/EGM2. […] We used rhodamine phalloidin (Molecular Probe) for F-actin staining and TOPRO®-3-iodine (Molecular Probe) for nuclear staining. Fluorescence images were obtained using a Bio Rad MRC confocal fluorescence microscope.

For test [2], the system named is HMVEC monolayers. Description: Immunofluorescence of endothelial architecture (F-actin, VE-cadherin). The class given is cell-based, human. The note with it: 10% patient serum plus 100 ng/ml recombinant human Ang-1. How it is done: HMVEC were grown to confluence on glass coverslips coated with 1% gelatin. The cells were fixed for 10 minutes in 4% paraformaldehyde in PBS, incubated for 5 min in 0.5% Triton X-100 in PBS. After blocking, the monolayers were processed for staining with anti-VE-cadherin monoclonal antibody (BD Pharmingen, San Diego, Calif.) and Alexa Fluoro 488 goat anti-mouse IgG, rhodamine phalloidin (Molecular Probe, Eugene, Oreg.) for F-actin staining and TOPRO-3-iodine (Molecular Probe) for nuclear staining. Fluorescence images were obtained using a Bio Rad MRC confocal fluorescence microscope. For human subject serum experiments, serum was diluted to 10% with EBM-2 and filtered with low protein binding PVDF membrane (0.22 μm, Millipore Corp) prior to application on endothelial cell monolayers.

The subject of test [3] is Tie2. The experiment in a line: Tie2 phosphorylation by Ang-1 in HMVEC-L. The class given is cell-based, human. To be noted: Ang-1 100 ng/ml, 15 minutes. How it is done:
We lysed HMVEC-L with Triton buffer (50 mM Tris-HCl pH 8.0, 150 mM NaCl, 1% Triton X 100, and 5 mM EDTA) supplemented with protease inhibitors (Roche Diagnostics), 1 mM NaF and 1 mM Na3VO4, adjusting protein concentration by BCA protein assay (Pierce) and incubated 200 μg of total protein with anti-Tie2-Ab (clone Ab33, Upstate, Lake Placid, N.Y.) or p190RhoGAP Ab (Transduction laboratory, Lexington, Ky.) for 3 hours, followed by incubation with protein A sepharose (Zymed, San Francisco, Calif.) for 2 hours at 4° C. After washing the beads, proteins were eluted by heating in SDS-sample buffer and detected by immunoblotting with anti-phospho-tyrosine (clone 4G10, Upstate), anti-Tie-2 Ab, or anti-p190RhoGAP Ab.

In test [4] the test system is Rac1. The experiment in a line: Rac1 activity assay (pull-down). The format is cell-based, human. How it is done:
These were performed and quantified using the commercially available kit according to the manufacturer's instruction (Cytoskeleton, Denver, Colo.). After signal starvation, HMVEC-L were treated with vehicle, Ang-1 (100 ng/ml) with or without inhibitor for the indicated time and harvested with lysis buffer. Following a brief centrifugation to remove cell debris, lysates from the cells containing equivalent protein concentrations were incubated for 60 minutes with 40 μL slurry of a GST-fusion protein composed of Rac1 or RhoA effector proteins coupled to agarose beads. After washing with lysis buffer, samples were subjected to immunoblotting and detected with anti-Rac1 or anti-RhoA antibody (Santa Cruz Biotechnology, Santa Cruz, Calif.). Whole cell lysates were also run to determine the total amount of Rac1 or RhoA protein.

Test [5] relates to HMVEC-L monolayers. Description: Immunostaining of HMVEC-L bathed in HD IL-2 patient serum. The class given is cell-based, human. To be noted: 1:10 serum for 30 minutes, then Ang-1 100 ng/mL. How it is done:
Human pulmonary arterial microvascular endothelial cells (HMVECs) (Cambrex Bio Science, Walkersville, Md., United States) cells were cultured in EBM-2 (Cambrex Bio Science) supplemented with 5% fetal bovine serum (FBS) and growth factors according to the manufacturer's instructions. Serum starvation was performed by incubation in 0.25% FBS/EBM-2 for 24 hours.
HMVECs were grown to confluence on glass coverslips coated with 1% gelatin. The cells were fixed for 10 minutes in 4% paraformaldehyde in PBS, and incubated for 5 min in 0.5% Triton X-100 in PBS. After blocking, the monolayers were processed for staining with anti-VE-cadherin monoclonal antibody (BD Biosciences Pharmingen, San Diego, Calif., United States) and Alexa Fluor® 488 goat anti-mouse IgG, rhodamine phalloidin (Molecular Probes, Eugene, Oreg., […]) for F-actin staining and TOPRO-3-iodine (Molecular Probes) for nuclear staining. Fluorescence images were obtained using a Bio Rad MRC confocal fluorescence microscope. For experiments using cells treated with serum from patients, serum Ang-2 concentration was first measured by ELISA. Then, patient serum was diluted to 10% with EBM-2 and filtered with low-protein-binding PVL) F membrane (0.22 lm Millipore) prior to application on EC monolayers.

The subject of test [6] is MLC phosphorylation (MLC-P). Description: MLC-P immunoblot in HMVEC-L. The format is cell-based, human. To be noted: Ang-1, HMVEC-L. How it is done: HMVEC-L were washed with ice-cold PBS three times and lysed with ice-cold RIPA buffer (50 mM Tris-HCl pH7.4, 150 mM NaCl, 1% NP-40, 0.5% Sodium Deoxycholate, 0.1% SDS and 1 mM EDTA) supplemented with protease inhibitors (Roche Diagnostics, Indianapolis, Ind.), 1 mM NaF and 1 mM Na3VO4. Lysates were sonicated and centrifuged at 10,000 rpm for 10 minutes at 4° C., and supernatants were collected. Protein concentrations were determined by BCA protein assay with bovine serum albumin as standard (Pierce, Rockford, Ill.). Lysates were electrophoresed using NuPAGE system (Invitrogen Life Technologies, Franklin Lakes, N.J.) and transferred to PVDF membrane and immunoblotted with specific primary antibodies. Binding of primary antibodies was detected using horseradish peroxidase-conjugated secondary antibodies (Amersham Bioscience, Piscataway, N.J.) and SuperSignal WestDura (Pierce) as a chemiluminescence substrate. Primary antibodies were obtained from these suppliers: anti-phospho-Akt Ab (Ser 473), anti-Akt Ab and anti-phospho-myosin light chain 2 (Ser19) Ab were from Cell Signaling Technology; anti-GAPDH Ab was from Chemicon International (Temecula, Calif.).

Test [7] concerns mice (female FVB strain), lung. The experiment in a line: In vivo permeability assay (Evans blue, LPS). Details: species or system mouse. To be noted: Ang-1 10 mcg ip x 2 doses. How it is done: Mice (8-12 weeks old, female FVB strain) were pretreated with Ang-1 (10 mcg, ip). 8 hours after the first Ang-1 injection, the second dose of Ang-1 (10 mcg, ip) and LPS (100 μg, ip) were co-injected. Lung permeability was assessed 16 hours after the second injection. Mice were anesthetized with Avertin (2,2,2-Tribromoethanol) and 2% Evans blue (50 μl) was then injected into the retro-orbital sinus. Ten minutes after Evans blue injection, mice were sacrificed and perfused with PBS with 2 mM EDTA for 10 minutes through a cannula placed in the right ventricle. […] Organs were then harvested and homogenized in 1.5 nil formamide. Evans blue was extracted by incubating the samples at 70° C. for 24 hours, and the concentration of Evans blue was estimated by dual-wavelength spectrophotometer (620 and 740 nm). The following formula was used to correct optical densities (E) for contamination with heme pigments: E620 (corrected)=E620−(1.426XE740+0.030).

Entries after “also recorded” stand apart in the source; their conditions may differ.

B1: Ang-1: Human recombinant angiopoietin-1 purchased from R&D systems; Tie-2 agonist, endogenous Ang-2 antagonist (protein, listed as Homo sapiens)
chain: MTVFLSFAFLAAILTHIGCSNQRRSPENSGRRYNRIQHGQCAYTFILPEHDGNCRESTTDQYNTNALQRDAPHVEPDFSSQKLQHLEHVMENYTQWLQKLENYIVENMKSEMAQIQQNAVQNHTATMLEIGTSLLSQTAEQTRKLTDVETQVLNQTSRLEIQLLENSLSTYKLEKQLLQQTNEILKIHEKNSLLEHKILEMEGKHKEELDTLKEEKENLQGLVTRQTYIIQELEKQLNRATTNNSVLQKQQLELMDTVHNLVNLCTKEGVLLKGGKREEEKPFRDCADVYQAGFNKSGIYTIYINNMPEPKKVFCNMDVNGGGWTVIQHREDGSLDFQRGWKEYKMGFGNPSGEYWLGNEFIFAITSQRQYMLRIELMDWEGNRAYSQYDRFHIGNEKQNYRLYLKGHTGTAGKQSSLILHGADFSTKDADNDNCMCKCALMLTGGWWFDACGPSNLNGMFYTAGQNHGKLNGIKWHYFKGPSYSLRSTTMMIRPLDF
Take B1: the “cytoskeleton and junction staining compared to control cells” value in test [1] (Ang-1, confluent HMVEC-L, 30 min) is “increase in cortical actin, peripheral MLC-P, and increased VE-cadherin staining at cell junctions”. In addition, in test [1] (endotoxin plus Ang-1), the “effect on endotoxin-induced structural derangements” value was “reverted the endotoxin-induced derangements to a normal appearance”. The “reversal of gap formation provoked by high Ang-2 sepsis serum” value in test [2] was “reversed”. Further, the Tie2 phosphorylation entry in test [3] is listed as “induces Tie2 phosphorylation”. The Rac1 activity entry in test [4] (HMVEC-L treated with Ang-1) is “increased within 15 minutes”. In test [4] (co-incubation with Ang-1), the “effect on endotoxin-induced change of Rac1 activity” value is recorded as “reversed”. Moreover, in test [5], the “rescue of endothelial disruption by high Ang-2 HD IL-2 patient serum” value is listed as “significant attenuation in stress fiber formation; also recorded: rescue effect of Ang-1 was confirmed”. In test [6], the “time of peak MLC phosphorylation (MLC-P) after stimulation” value is 0.5 to 1.0 h. Further, the “effect on endotoxin-increased lung permeability” value in test [7] is recorded as “blocked”.
